This note sets out measurements from patent US20240151714A1.

The target of test [1] is hCG-first DNA conjugate (human) (UniProt P01215). Kind of test: cell-based or functional assay.
Test [2] addresses hCG-second DNA conjugate (human) (UniProt P01215). The experiment in a line: cell-based or functional assay.

Sequence of hCG-second DNA conjugate (human) (P01215 other isoform, or with tags, fused parts or gaps limits assumed, chain 1 of 2, other chains not shown): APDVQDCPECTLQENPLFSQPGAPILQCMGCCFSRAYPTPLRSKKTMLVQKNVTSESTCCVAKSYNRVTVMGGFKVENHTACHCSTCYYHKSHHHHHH
Sequence of hCG-first DNA conjugate (human) (P01215 other isoform, or with tags, fused parts or gaps limits assumed, chain 1 of 2, other chains not shown): as above

As for “hCG monoclonal antibody (MA5-14680; Thermo Fisher Scientific)”, the limit of detection (LOD) for the antibody, PPR-based immunoassay (absorbance at 405 nm) in test [1] and in test [2] was 9.83 pM in each case.
